Reference: paper PMC7110144
Where a chain is given by its changes, count along the chain named. Names may count otherwise.

T1: CENP-A-GFP-LacI (in S2 cells), Q9V6Q2
T1 chain: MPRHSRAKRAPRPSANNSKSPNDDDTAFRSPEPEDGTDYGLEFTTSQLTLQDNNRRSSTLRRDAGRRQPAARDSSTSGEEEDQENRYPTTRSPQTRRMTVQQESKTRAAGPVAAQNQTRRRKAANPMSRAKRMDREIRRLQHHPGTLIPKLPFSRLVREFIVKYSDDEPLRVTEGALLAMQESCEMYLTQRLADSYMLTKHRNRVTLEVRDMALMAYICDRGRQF

B1: CAL1WT-V5 (in S2 cells), Q9VEN2 W22R; F29R (protein)
chain: MANAVVDEETLEAMVYERSKARSSKMADRASLEDGMEIDVAEFDNLFHGEDEDPDLDDVAKEAVEDNVPDEAKLEMGHINATSVTELTLILCANEDNEAKAEIEEILNQTVPVVEEHKRKWREAGLDRILDTFDEKQIEHHVGRWMRRHNSVYLEASPPKYLPPHHNSISDESDESMHSIDTARYIQQSRRRNAHMTNKNMTTIKMYRKHSHKRDELRAKYAYGDEQEHRHHMQAVLLRRRERERQLAYLASTPMQCVYSSGHHMRRKNLRKRRINSWMFDSASSSEEDTSFGGCDCHSCRRHYALSRSVYQSCPYGRGQREYHHRQMASRTMHTMRRQHTFDMEMDLRPRLPENECSCCNSDRLCSNVIHIANSSTEEWVVENRSNHLTQETQEKTRKQKHQPMDARKVSHQPVCSKGHEQKPLSSKATSVSKLVLSKEKYMQMFDSESSDEDNALAKKGLLCCSDKKKGMTFPTPNAAGKITHPTSSAKKAIRKEARPNGLAQIQEEGPTATNSPIESTYLPVAHMKSVSIDGSSGTSATFESPAKKAPKRGIRETSPLNGNELQQLISTIPIADEKASSLMEKVDNCIGRESFDDRNKDFMHMENSSTKTAVEKSTKQKRVSGKKSEIPKSIITNNEILEKNSTETLSEKQVAAKAKKQSVRKTGATGKPSTSRLKKSEKTKTTSSVTSTSKLEQVREEESDVSSEVLAKPKPQCSTTASILKQGGDGASNSEDDLQIALAMSKATYKEEQQKRKKTKREPSNKQPQSPAEKSMTVFNNQSVACNSTALANDTACYRVLPKRRGVKRAAAVSTTEEKTATNSSSSPTSSLEEMGSPTGGDPDCTVVTSTTGCEPPASERQEIPATIKITKRGILLHSPSAPEGASFTLTEQGLGKIIGERWARKYLKYHIGSRSFDSRHSVYYQPTPQLAAALSAPQDAQNIGNISGSSASDDDIFEQINRYGTVYSILENNSGDK
B2: CAL1WT-V5 (in S2 cells), Q9VEN2 F43R (protein)
chain: B1 chain with R22W, R29F, F43R

Molecular target: T1, CENP-A-GFP-LacI (in S2 cells), Q9V6Q2
Experiment: LacO/LacI tethering assay in Drosophila S2 cells (fluorescence intensity of CAL1-V5 at the tethering site)
Conditions: chain shown with the change;; parent: est. 1800; read off a plot

Binder	response [a.u.]
B1	120
B2	590
